This is an account of results in US20050287643A1 (YALE UNIVERSITY, published 2005).

The target of one assay is KIX domain of CBP (Homo sapiens (Human), UniProt Q92793 587-666). The experiment in a line: method not stated (supplemental information).
In assay [1] the target is T1, Mena1-112 EVH1 domain (UniProt Q03173 1-112).
T1 construct: range 1-112
Nature of the assay: tryptophan fluorescence perturbation.

For assay [2], the target named is T1, Mena1-112 EVH1 domain. The experiment in a line: fluorescence polarization competition against pGolemi^Flu. In general terms: Polarisation of emitted light reports the rotation of a fluorescent probe.

The Kd is the concentration at which binding is half-saturated. A lower Kd goes with tighter binding. By IC50 is commonly meant the midpoint of a concentration-inhibition curve. A low value points to greater potency.

T1 sequence (Q03173 1-112 limits assumed): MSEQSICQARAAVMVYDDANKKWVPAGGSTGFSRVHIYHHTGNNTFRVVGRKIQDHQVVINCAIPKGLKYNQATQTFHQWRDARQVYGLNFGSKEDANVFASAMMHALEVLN
KIX domain of CBP, sequence (Q92793 587-666 limits assumed, form in doubt): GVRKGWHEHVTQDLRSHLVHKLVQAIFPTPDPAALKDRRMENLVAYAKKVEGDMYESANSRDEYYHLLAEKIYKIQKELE

PFPPTPPGEEAPVEDLIRFYNDLQQYLNVV (designed binder) [pGolemi] returned a Kd with KIX domain of CBP of 15 µM.

In the assay with Mena1-112 EVH1 domain [1], PFPPTPP [PPII7] came in with a Kd of 480 µM.

B1: ActA11 (peptide)
peptide: FEFPPPPTDEE
notes: domain: PPII repeat 2; also called 11 residue peptide comprising PPII repeat 2 of L. monocytogenes ActA
On to B1, for which the IC50 with Mena1-112 EVH1 domain [2] was 4 µM.
